Assay results published in the supplement of paper PMC9170038.

system: K4 kissing-loop RNA reporter; assay: apparent KD of K4 kissing-loop reporter; higher = weaker reporter binding; conditions: Eterna round: R107; input ligand: tryptophan 2.4 mM
Experimental: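 RNA-MaP round R107: designed RNA switches with theophylline, tryptophan, arginine or FMN aptamers are transcribed on-chip within common flanks. They are titrated with a labelled K4 kissing-loop RNA reporter in RNA-MaP buffer (100 mM Tris pH 7.5, 80 mM KCl, 4 mM MgCl2), without ligand or with the indicated ligand. Median apparent KD per design.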
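Also: bound reporter read as fluorescence of individual clusters on recovered sequencing chips by microscopy, with normalized cluster intensities fitted with a binding model.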

Sequence | apparent KD of K4 kissing-loop reporter [µM]
GCCUUAUAUCGAGCUACAGCUCGAUUUGGUCGAGGACCGGUACGGCCGCCACUCGAAUGAUAGUGAUGUUAUCAUUAUGGCCUAA [JR_ExcTryptoA_Sub022] | 0.148
AUUAGGCGAAGUGAUGUUUCAUAUAAUGGCAAGGAUAUGUCCUUACACAGAAGGUGCUCUUAGUCAGGUUAUAUUAGGACUGCUA [theeternabot_exclusion_KL_FMN_A_42] | 0.34
GCCGUAGAUUGAAGGAGCGGGAUAGAGAAAGUGAUGUUUUCUCUUUGACGGCGUCCUCGAUCCCAGGUAGGUCGCAAUCUACGGC | 0.0702
AUAAACUUGCAGUGAUGUUGCAAGUGAGACUAGGAUAUCAGGAAGCUGAGAAGGAGUCAUCUCCUUCAGACAUCACUAUGAAGGA [whbob_SS_FMNA__2th179] | 0.232
AAGCAGUCACUCGAACCCAUCGAAGAUGGUCGAGGACCGGUACGGCCGCCACUCGGAGUGAUGUUCCGCAGACUGCAAAAUAAAA | 0.312
ACCUAGUACGUAGGAUAUCGAACAUCAUUUAGUGAGAUCGAGUGAUGUUCGAUCACGUCUUCAGUUCGAGAAGGACGUACUAGGA [FMN B SS t4] | 0.351
UCCUGCAAUCGUCCACGAAAGUGGAUUGAUACCAGAGUCGAAAGACUCCCUUGGCAGCGAGUGAUGUUCGAAGCAGGUAAAUAAA | 0.337
GCCAGUGAUGUUGGCAUUUCGAGCCAUGAAGGAGCGCACGGAAGUGCAGGUAGGUCGCAUGGUACUUAAGAUAUUAUCCUAAGUA [Atceis] | 0.129
CGCAGUGAUGUUGCGAGUAGCUACAGGGAAGGAGCGUGCUAGAGCACAGGUAGGUCGCCCAGUGGCAGUGAUGUUGCCAAAGGGU [Exclusion ARginine A GF 17] | 0.116
AACGCAAGUUGUCUGGUAGACAUUUCAGAUACCAGACAUAGUGAUGUCCCUUGGCAGCUGAACAUCCAGUGAUGUUGGAUACGUU [Theo A SS t11a] | 0.4
GGUGCUGUCUGUGCCGCCCUCCUCGUUCCUCGAGGACCGGUACGGCCGCCACUCGAGUGAUGUUUGGGUAGCGAUCCCUGCUAGC [Bdazzled - #16 Exc. Tryptophan A] | 0.696
UAUAUAGUGAUGUUAUAUAUACAUUCGGAAGGAGCGUGGUAAAACACAGGUAGGUCGCUGAAAUAAUUAAAAUAAUUUUCUUUUU [AstrosSSArgA#1] | 0.231
UACAAUUUGGCGGCCGCCACUGACCAUAGCCUUCGAUGGCCAGUGAUGUUGGCCUCUGGCUCUAACAGGACCGGGCCAAAUUAUG [Maeste] | 0.117
AACCGUGUGGCGGCCGCCACUAGUCUCCAGUGAUGUUGGAGAGAUCACGUAAGUGAUCUCCGACAUAGGACCGGGCCAUAUGGAA [Same State - Tryptophan B (Freestyle 24)] | 0.661
GGCCGGAAGGCGAGCGCUCCCACUCCGGAAGGAGCGCCCGCAAGGGCAGGUAGGUCGCCGGAGUGAUGUUCCGGUGGAGGGCUCG [#2 Exclusion - Arginine A Attempt #20 (Inspired by Omei)] | 0.136
GGAUAGGACAUAGGAUAUGGGCUAGGCAAGAAUAACUUGUCUAGCAAAUCCAUGAGGAGUGAUGUUCCAGAAGGGUGUCCUAUCG [FmnBX 1 U11+G75] | 0.0899
GCAGUGAUGUUGCGGAUGUACAGUGGGAUACGAGGACCGGUACGGCCGCCACUCGUACAGAACAAGCUAAUACAUCGAUAGGUGA [XII] | 0.301
GCAGUGAUGUUGCGGAUGUACAGUGGCGUGCGAGGACCGGUACGGCCGCCACUCGUACAGCACAAGCUAAUACAUCGAUAGGUGA [whbob_SS_Tryp_A_m2] | 0.43
UGCGCUGUGUACUGAAAUGUUAUGCGGGAUACCAGAGUCUUUUUAUUCCCUUGGCAGCUUGAGUGAUGUUUGAUGCCGUUCUUGU [po,,mmullin] | 0.418
GUCUCGAGUGAUGUUCGGGUCGAUUGGGAAGGAGCGCCCGGAAGGGCAGGUAGGUCGCCCGGACCGCGCGGGCAACCGCGCGGCC [#2 Same State - Arginine A Attempt #11 (HarryS)] | 0.163
GCCAUCAGGUCGCAAGACCUGAUAGCCGAUACCAGCGCGAAGGUGCGCCCUUGGCAGCGGCACCGAGUGAUGUUCGGUCAGGCGG [#2 Same State - Theophylline A Attempt #3 (HarryS)] | 0.554
CUUAAGGAGUGUCGUGCCGGACACUGGGAAGGAGCGCAAUUCUUUGCAGGUAGGUCGCCCAGUGAUGUUGGGUGGCGCUGUCGAA [Laatonbi] | 0.128
GCGAACAUUCGCAGUGAUGUUGCGACGGAAGGAGCGCGUGAAAACGCAGGUAGGUCGCCGACAAAAUUAAUUUUAAUGUGUUCGC [Arginine A K4 27] | 0.315
UGUGUUGUUGUGAUGUUUAGUGUUGUUGGGCAGGAUAUCGUAGAGGCGAGAAGGGCUUGUGUGCUGUAUGAGUGAUGUUUGUAGG [xrrxmullin] | 0.322
AGAACUGUCUGAGAUACCAGCCAUAGGAGUGAUGUUCCUAGCUCCACAAAGUGGAGCCAUGGCCCUUGGCAGCUCAGACAGUUCA [Omei KL Theo B SS A v8] | 0.206
AAAAUAAACCAGUGAUGUUGGUGUCCAGAUACCAGCGACAAAAGUCGCCCUUGGCAGCUGUGGACGUACAAAAUAAGUACGUCCU [MatMod 1 - Jieux - Same State - Theophylline A] | 0.316
AGGUCCGAGCCCGUAAGGGCUCGGACCUGUUAGGAUAUGACGUUAUUCAGAAGGGAUGGGUGGAGUGAUGUUCCACCCGCAAGGG [#2 Same State - FMN A Attempt #10 (HarryS)] | 0.0957
